Data: PMC6123785

Tests used:
PTHR1 wild-type receptor = PTHR1 wild-type receptor (UniProt Q03431)
[1] = molecular target: parathyroid hormone receptor 1 BRET-biosensor PTHR1_(Nluc/Halo618) (UniProt Q03431)
[2] = molecular target: parathyroid hormone receptor 1 BRET-biosensor PTHR1_(Nluc/Halo618) (UniProt Q03431); remark: listed apart in the source

In the case of PTH(1-34) (peptide), the Supplementary Figure 6f: pEC50 of PTH(1-34), PTHR1 mediated cAMP response (FRET-based H187-EPAC cAMP sensor co-transfected with the wild-type receptor) (pEC50 (-log M)) (PTHR1 wild-type receptor) is reported as 9.52, the Supplementary Figure 6f: pEC50 of PTH(1-34), PTHR1 mediated cAMP response (FRET-based H187-EPAC cAMP sensor co-transfected with the biosensor PTHR1Nluc/Halo) (pEC50 (-log M)) [1] is reported as 7.57 and the change in intramolecular BRET of the PTHR1 (Nluc/Halo618) sensor in intact cells, 96-well plate, 37 °C, saturating ligand (Fig. 3d); serial dilutions for a concentration-response curve (Fig. 3e) [2] is reported as 10%.
